Test system: Human myoblasts
Test: Expression array of the innate immune response to lentiviral infection versus uninfected cells
Assay type: cell-based
Experimental: RNA was harvested from the lenti-viral infected cells and uninfected control cells at 24 hours after infection.

B1: DUX4-s: short splice form of DUX4 (SEQ ID NO:112), keeps the double-homeobox domains, lacks the C-terminal activation domain (protein, listed as Homo sapiens)
chain: MALPTPSDSTLPAEARGRGRRRRLVWTPSQSEALRACFERNPYPGIATRERLAQAIGIPEPRVQIWFQNERSRQLRQHRRESRPWPGRRGPPEGRRKRTAVTGSQTALLLRAFEKDRFPGIAAREELARETGLPESRIQIWFQNRRARHPGQGGRAPAQV
- IFITM3 expression ratio vs GFP (.fc) (gene IFITM3 NM_021034.2, vs lenti-GFP, 24 hours after infection): −0.13 log2 fold change
- IFITM3 expression ratio vs NoLenti (.fc) (gene IFITM3 NM_021034.2, vs uninfected, 24 hours after infection): 1.84 log2 fold change
- IL1R1 expression ratio vs GFP (.fc) (gene IL1R1 NM_000877.2, vs lenti-GFP, 24 hours after infection): 0.30 log2 fold change
- IL1R1 expression ratio vs NoLenti (.fc) (gene IL1R1 NM_000877.2, vs uninfected, 24 hours after infection): 1.61 log2 fold change
- IL7R expression ratio vs GFP (.fc) (gene IL7R NM_002185.2, vs lenti-GFP, 24 hours after infection): 0.57 log2 fold change
- IL7R expression ratio vs NoLenti (.fc) (gene IL7R NM_002185.2, vs uninfected, 24 hours after infection): 2.05 log2 fold change
- IL8 expression ratio vs GFP (.fc) (gene IL8 NM_000584.2, vs lenti-GFP, 24 hours after infection): 1.19 log2 fold change
- IL8 expression ratio vs NoLenti (.fc) (gene IL8 NM_000584.2, vs uninfected, 24 hours after infection): 4.69 log2 fold change
- IL18BP expression ratio vs GFP (.fc) (gene IL18BP NM_173042.2, vs lenti-GFP, 24 hours after infection): 1.40 log2 fold change
- IL18BP expression ratio vs NoLenti (.fc) (gene IL18BP NM_173042.2, vs uninfected, 24 hours after infection): 3.37 log2 fold change
- IRF7 expression ratio vs GFP (.fc) (gene IRF7 NM_004029.2, vs lenti-GFP, 24 hours after infection): 1.14 log2 fold change
- IRF7 expression ratio vs NoLenti (.fc) (gene IRF7 NM_004029.2, vs uninfected, 24 hours after infection): 3.99 log2 fold change
- IRF9 expression ratio vs GFP (.fc) (gene IRF9 NM_006084.4, vs lenti-GFP, 24 hours after infection): 0.29 log2 fold change
- IRF9 expression ratio vs NoLenti (.fc) (gene IRF9 NM_006084.4, vs uninfected, 24 hours after infection): 2.72 log2 fold change
- MX1 expression ratio vs GFP (.fc) (gene MX1 NM_002462.2, vs lenti-GFP, 24 hours after infection): 0.26 log2 fold change
- MX1 expression ratio vs NoLenti (.fc) (gene MX1 NM_002462.2, vs uninfected, 24 hours after infection): 7.49 log2 fold change
- NFIL3 expression ratio vs GFP (.fc) (gene NFIL3 NM_005384.2, vs lenti-GFP, 24 hours after infection): 0.32 log2 fold change
- NFIL3 expression ratio vs NoLenti (.fc) (gene NFIL3 NM_005384.2, vs uninfected, 24 hours after infection): 2.16 log2 fold change
- NFKBIA expression ratio vs GFP (.fc) (gene NFKBIA NM_020529.1, vs lenti-GFP, 24 hours after infection): 0.28 log2 fold change
- NFKBIA expression ratio vs NoLenti (.fc) (gene NFKBIA NM_020529.1, vs uninfected, 24 hours after infection): 2.46 log2 fold change
- NFKBIZ expression ratio vs GFP (.fc) (gene NFKBIZ NM_001005474.1, vs lenti-GFP, 24 hours after infection): −0.26 log2 fold change
- NFKBIZ expression ratio vs NoLenti (.fc) (gene NFKBIZ NM_001005474.1, vs uninfected, 24 hours after infection): 1.58 log2 fold change
- STAT1 expression ratio vs GFP (.fc) (gene STAT1 NM_007315.2, vs lenti-GFP, 24 hours after infection): 0.82 log2 fold change
- STAT1 expression ratio vs NoLenti (.fc) (gene STAT1 NM_007315.2, vs uninfected, 24 hours after infection): 4.79 log2 fold change
- STAT2 expression ratio vs GFP (.fc) (gene STAT2 NM_005419.2, vs lenti-GFP, 24 hours after infection): 0.19 log2 fold change
- STAT2 expression ratio vs NoLenti (.fc) (gene STAT2 NM_005419.2, vs uninfected, 24 hours after infection): 2.11 log2 fold change
- TLR3 expression ratio vs GFP (.fc) (gene TLR3 NM_003265.2, vs lenti-GFP, 24 hours after infection): 1.67 log2 fold change
- TLR3 expression ratio vs NoLenti (.fc) (gene TLR3 NM_003265.2, vs uninfected, 24 hours after infection): 2.56 log2 fold change
- TNFAIP2 expression ratio vs GFP (.fc) (gene TNFAIP2 NM_006291.2, vs lenti-GFP, 24 hours after infection): 0.06 log2 fold change
- TNFAIP2 expression ratio vs NoLenti (.fc) (gene TNFAIP2 NM_006291.2, vs uninfected, 24 hours after infection): 1.06 log2 fold change
- TNFAIP3 expression ratio vs GFP (.fc) (gene TNFAIP3 NM_006290.2, vs lenti-GFP, 24 hours after infection): 0.28 log2 fold change
- TNFAIP3 expression ratio vs NoLenti (.fc) (gene TNFAIP3 NM_006290.2, vs uninfected, 24 hours after infection): 2.50 log2 fold change
- TNFAIP6 expression ratio vs GFP (.fc) (gene TNFAIP6 NM_007115.2, vs lenti-GFP, 24 hours after infection): 1.31 log2 fold change
- TNFAIP6 expression ratio vs NoLenti (.fc) (gene TNFAIP6 NM_007115.2, vs uninfected, 24 hours after infection): 5.10 log2 fold change
- TNFRSF6B expression ratio vs GFP (.fc) (gene TNFRSF6B NM_032945.2, vs lenti-GFP, 24 hours after infection): 0.01 log2 fold change
- TNFRSF6B expression ratio vs NoLenti (.fc) (gene TNFRSF6B NM_032945.2, vs uninfected, 24 hours after infection): 1.32 log2 fold change
- TNFRSF10A expression ratio vs GFP (.fc) (gene TNFRSF10A NM_003844.2, vs lenti-GFP, 24 hours after infection): 0.84 log2 fold change
- TNFRSF10A expression ratio vs NoLenti (.fc) (gene TNFRSF10A NM_003844.2, vs uninfected, 24 hours after infection): 1.81 log2 fold change
- TNFRSF14 expression ratio vs GFP (.fc) (gene TNFRSF14 NM_003820.2, vs lenti-GFP, 24 hours after infection): 0.57 log2 fold change
- TNFRSF14 expression ratio vs NoLenti (.fc) (gene TNFRSF14 NM_003820.2, vs uninfected, 24 hours after infection): 1.78 log2 fold change
- TNFSF10 expression ratio vs GFP (.fc) (gene TNFSF10 NM_003810.2, vs lenti-GFP, 24 hours after infection): 2.97 log2 fold change
- TNFSF10 expression ratio vs NoLenti (.fc) (gene TNFSF10 NM_003810.2, vs uninfected, 24 hours after infection): 3.88 log2 fold change
- TNFSF13B expression ratio vs GFP (.fc) (gene TNFSF13B NM_006573.3, vs lenti-GFP, 24 hours after infection): 2.19 log2 fold change
- TNFSF13B expression ratio vs NoLenti (.fc) (gene TNFSF13B NM_006573.3, vs uninfected, 24 hours after infection): 3.78 log2 fold change
- number of the 341 lenti-GFP induced genes induced 2-fold or more (vs uninfected cells, 24 hours): 315 genes
